Literature values, collected in paper PMC3742580.

Biological target: Ras (Homo sapiens) (UniProt P01112)

Chain of RalGDS RA (Q12967 798-885): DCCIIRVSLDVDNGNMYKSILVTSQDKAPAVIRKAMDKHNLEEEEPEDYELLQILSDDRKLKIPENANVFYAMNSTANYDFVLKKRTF

In the case of RalGDS RA (from UniProt Q12967), the Kd is given as 1900 nM.
